Measurements published in the supplement of paper PMC12764529.
± gives the half width of the 95% confidence interval.

Tests used:
[1] = folding stability dG unfold (combined trypsin and chymotrypsin); higher = more stable
Procedure, shortened: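 How resistant each design was to proteolysis was captured as K50, inferred by Bayesian fitting of sequencing counts. Unfolding free energy was then derived relative to a sequence-predicted unfolded-state K50 and a shared folded-state K50, per protease or combined. Digestion used trypsin and chymotrypsin at 11 threefold-diluted concentrations plus a no-protease condition, on mini-proteins under 80 residues without cysteine in a PA-tagged cDNA display construct. Designs were kept only when AlphaFold2 dimer inter-PAE was above 15.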

[2] = folding stability dG unfold from trypsin proteolysis; higher = more stable
Experimental: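 Folding stability of de novo designed mini-proteins (<80 aa, no Cys; designed by TrROS, TrMRF, ProteinMPNN and the joint model) was measured by cDNA display proteolysis with trypsin and chymotrypsin. Each protease was used at 11 concentrations in a threefold dilution series plus a no-protease condition. K50 was inferred by Bayesian fitting of sequencing counts, and dG unfold was derived against a sequence-predicted unfolded-state K50 (Tsuboyama et al. method). Sequences shown include variable-length N-terminal GS-type padding (SAGGSAGG...) inside a display construct carrying a PA tag. Rows were kept only if the AF2 dimer inter-PAE was >15, to exclude likely homo-oligomers.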

Sequence | folding stability dG unfold [1] [kcal/mol] | folding stability dG unfold [2] [kcal/mol]
SAGGPNIEIEQERHPDDGMWTINVKWDNPAEIVEEIAKEIREQNRDIPIMITGPDGNPIMIPLDDIRSAGGS [r8_236_TrROS] | -0.817 ± 0.39 | 0.177 ± 0.049
SAGGPVIKIPIEIMMPNNDLNKFANEIAKELQDDGYKVKINPIEFEPQRDPDGKPDYVHFRATVEVQPSAGG [r13_707_TrROS] | < -1 | -0.228 ± 0.18
SAGGSAEKLEEAIEEAKKVPEGAEVPILITVEKDGKPVVFEVKITRLPKEKKIKIDPLKAYLPEEFSAGGSA [r15_724_TrMRF] | < -1 | -0.63 ± 0.39
SAGGSAGGDGHPDILNAVFTRTETFYREGDDEPGGEGTREILVVVTGDNPENPELALKEAEEAASAGGSAGG [r6_928_TrMRF] | 0.0849 ± 0.18 | 0.601 ± 0.055
SAGGSAGGDPSRLPVITPETFNVPVPAPGGVNETVTVTVIKLPGGETIVTTTYPDGKTTTELIPSAGGSAGG [r6_111_JUSTAS] | 0.182 ± 0.15 | 0.927 ± 0.058
SAGGSAGGGMVTVEIPLEVTLTTSLTPEPGTAQTVTLPVVVTIEFPPGNPEKLKKEVEKIKKKSSAGGSAGG [r6_280_JUSTAS] | < -1 | -0.456 ± 0.2
SAGGSAGGIRIHRDNDKYVIHVPMDPNQPPENIKDILRDLPGLEDPEEIEYVPNPNGQAMIKIPSAGGSAGG [r6_516_TrROS] | < -1 | -0.0828 ± 0.18
SAGGSAGGKIEIFDQDQHDEMNQENGMPPKNYWMIRINGKPTAILPPDKPLTPNTIKNLIKEGLSAGGSAGG [r6_243_TrROS] | -0.799 ± 0.8 | 0.447 ± 0.15
SAGGSAGGKKVFLPYSVISTVVPKHFPGDEKQALIDAEFLAKKAEEAGFKDVDFVISPVPPGAPSAGGSAGG [r6_545_TrMRF] | -0.938 ± 0.27 | -0.467 ± 0.23
SAGGSAGGMITIPINTPGLSPAEAAAIKAQLEADGYPAAEVTITASPVPPVPPLGPENIYSNRGSAGGSAGG [r6_246_JUSTAS] | < -1 | -0.0678 ± 0.047
SAGGSAGGMKAKVLVLDPETGKEYDSLEELKAEVEGPVLIRNSTGELILLHRDDLKYFPLPLSLSAGGSAGG [r6_684_TrMRF] | 0.0344 ± 0.2 | 0.305 ± 0.12
SAGGSAGGMSPDVEVVTVERVITTTEPVSPSLSPEYLKAYPNATKTTTTVTVTVVPKERFEELTSAGGSAGG [r6_831_JUSTAS] | < -1 | -1.44 ± 0.43
SAGGSAGGMSTISVTVPPNVSVEEVKERLKKENPNSKYEILSVSKGPGTVKAKIAYDPLPEELLSAGGSAGG [r6_623_JUSTAS] | < -1 | -0.782 ± 0.22
SAGGSAGGMTVPASSYEGVPLKVTVSRGDENVSAEEAEVTPLPDGTVVVKLPESLPEDTEVTLESAGGSAGG [r6_630_JUSTAS] | -0.137 ± 0.13 | 0.703 ± 0.047
SAGGSAGGSAGAAPDETTVTTTVTPSPGTTTVTTTTYTYAPPTNTVTSTTTTTTIPAGTASAGGSAGGSAGG [r11_237_JUSTAS] | 0.127 ± 0.36 | 0.659 ± 0.057
SAGGSAGGSAGFLVLVTDVKENPETGTFSIYLPSTGSVKTFPPNTKAVIPAAPDEPVFVAPESAGGSAGGSA [r18_329_TrMRF] | < -1 | -0.314 ± 0.11
SAGGSAGGSAGGDIEINVNANSPEEAKKFLGEFAQEGPAEIKIEVTPPPPPMPPNDPEYKSAGGSAGGSAGG [r7_261_TrROS] | < -1 | -0.235 ± 0.096
SAGGSAGGSAGGDPLERKPVKVLVLHPDKPIELEVDVGLSPEEIARPFAEKGYEVRFEGSAGGSAGGSAGGS [r10_540_TrMRF] | -0.836 ± 0.39 | -1.17 ± 0.29
SAGGSAGGSAGGDSSAPKPVIVEEGSVILEVKRDPKHGVITILSRNPLGGELITYEIPRSAGGSAGGSAGGS [r10_427_JUSTAS] | < -1 | -0.563 ± 0.28

Sequence | folding stability dG unfold [1] [kcal/mol] | folding stability dG unfold [2] [kcal/mol]
SAGGSAGGSAGGEESRRVTVTETVYPVYPGVGIIRVTRTVTTPDATTTSTTLVFVPPGLPSAGGSAGGSAGG [r17_465_JUSTAS] | < -1 | -0.433 ± 0.24
SAGGSAGGSAGGEILIFDDNGKRIIVIPIPPENRYRVVVIHENTGIPEVKEAKLEEVLSSAGGSAGGSAGGS [r10_482_TrMRF] | 0.104 ± 0.28 | 0.92 ± 0.055
SAGGSAGGSAGGEPVSFLVKTPEDRWYPAVAIPETGEVLVEVPNEVRVLPADAEFEVSPASAGGSAGGSAGG [r7_434_TrMRF] | < -1 | -0.0127 ± 0.11
SAGGSAGGSAGGETVVEEDPAAGTTVVTYHEPLPTPSTRENVTTLTHDPSSSAATTTESSAGGSAGGSAGGS [r10_1041_JUSTAS] | < -1 | -1.14 ± 0.27
SAGGSAGGSAGGGENVTTEEKVLEVSYDPSKNSYSTLVKVTVKYPNGTTEEFEVVEEKLSAGGSAGGSAGGS [r10_1214_JUSTAS] | -0.0354 ± 0.21 | 0.334 ± 0.042
SAGGSAGGSAGGGKDVPVIAVPAGDEEAAEEFARRLVAELERRTGKPAGDIPVDFVEVESAGGSAGGSAGGS [r10_1216_TrMRF] | -0.886 ± 0.84 | -0.243 ± 0.2
SAGGSAGGSAGGGMKVVIPKEEAEKKGLTEAKLKEIEEKLKAKGIKVEIKLISSEEPELLSAGGSAGGSAGG [r7_972_JUSTAS] | < -1 | 0.136 ± 0.12
SAGGSAGGSAGGGMTVVPTLEFFPGTRLVVRPVVVRDAEGRVVEVEPEVTPLPPPTLSLLSAGGSAGGSAGG [r7_135_JUSTAS] | < -1 | -0.353 ± 0.17
SAGGSAGGSAGGGSSLVDPEGKPLPPRPEVVTTTGSYYSSLPGDGYYHLEEPVVEPVYPESAGGSAGGSAGG [r7_572_JUSTAS] | -0.198 ± 0.14 | 0.339 ± 0.051
SAGGSAGGSAGGKKTIWIPVKIEPVPDGVRIKFPDGNPIIIPPNHKVEHTPGWMRITLDSAGGSAGGSAGGS [r10_305_TrROS] | -0.908 ± 0.86 | -0.293 ± 0.18
SAGGSAGGSAGGKPKITITQEQHPNGMHRVNVRNPNGKPIGEVPFDSPQQLEEAKEFLLDSAGGSAGGSAGG [r7_476_TrROS] | < -1 | -0.608 ± 0.3
SAGGSAGGSAGGKVLVRFPTGEVPEVVEIDVPFEAGDPEKAKEIADELLAKGAEEVVLEDSAGGSAGGSAGG [r11_196_TrMRF] | -0.328 ± 0.35 | 0.117 ± 0.056
SAGGSAGGSAGGMEKKLTLVTTRTPEGGSETILVDDSDPEKVRAELEEAGWTITETTSSSAGGSAGGSAGGS [r10_882_JUSTAS] | < -1 | -0.793 ± 0.95
SAGGSAGGSAGGMENGKIEIYKKEKDTFIAKINNGDKVIIIEKIKSIEELKEALIELGYGSAGGSAGGSAGG [r7_91_TrMRF] | 0.136 ± 0.17 | 0.527 ± 0.029
SAGGSAGGSAGGMIEIEVEKEEEVKELAEKFGFKVEAEKIEDGKIIAKIEFIPEEELKKSAGGSAGGSAGGS [r10_218_TrMRF] | < -1 | -0.839 ± 0.24
SAGGSAGGSAGGMKPGEPVEIKIPVPGNGKKIPIEIPVGMPPEQARKFAKEIAEELEKNHSAGGSAGGSAGG [r7_957_TrROS] | < -1 | -0.916 ± 0.2
SAGGSAGGSAGGMPVEVTEVASVTTLPNGTTKITIKTPTGTVTFDDPSKIPSSILKLLSSAGGSAGGSAGGS [r10_748_JUSTAS] | 0.211 ± 0.1 | 0.703 ± 0.014
SAGGSAGGSAGGMPVVVINTPSEEEAEKEKAKLEEDPEYKDGPINFIYIPPGTLPENVPLSAGGSAGGSAGG [r7_976_JUSTAS] | < -1 | 0.286 ± 0.072
